Literature values, collected in PMC2715106.

Legend:
[1] = target: core RNA polymerase (Escherichia coli) (UniProt P0A7Z4); test: in vitro transcription
[2] = target: core RNA polymerase (Escherichia coli) (UniProt P0A7Z4); test: SEC

Sequence of sigma32 (P0AGB3 whole entry): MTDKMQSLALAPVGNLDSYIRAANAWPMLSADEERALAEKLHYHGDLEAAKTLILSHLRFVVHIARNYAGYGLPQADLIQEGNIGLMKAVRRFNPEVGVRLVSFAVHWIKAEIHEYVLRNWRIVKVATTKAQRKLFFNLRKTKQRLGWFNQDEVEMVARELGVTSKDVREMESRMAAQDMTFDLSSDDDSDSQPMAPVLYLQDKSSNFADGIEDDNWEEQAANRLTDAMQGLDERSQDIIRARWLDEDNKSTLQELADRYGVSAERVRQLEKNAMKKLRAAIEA

Kd [1]: 1 nM | Kd [2]: 1.24 nM
Substance: sigma32 (from UniProt P0AGB3)
